Assay results taken from the Human Domainome abundance scans (Beltran et al. 2025).
± gives the uncertainty stated by the source.

B1: Membrane-associated guanylate kinase, WW and PDZ domain-containing protein 1, residues 352 to 401; numbered along this chain, Q96QZ7 (parent)
chain: TEELDSELELPAGWEKIEDPVYGIYYVDHINRKTQYENPVLEAKRKKQLE

Variants of: B1
Assay: abundance fitness (aPCA) (normalised: wild type 0, dead -1); higher = more abundant; growth selection in yeast, the domain comes from the species named
Conditions: Homo sapiens

Variant	abundance fitness
I30A	-0.093 ± 0.041
I30L	-0.082 ± 0.054
I30C	-0.322 ± 0.077
I30S	-0.279 ± 0.063
I30V	-0.064 ± 0.044
I30Q	-0.215 ± 0.047
I30D	-0.459 ± 0.083
T34Q	-0.182 ± 0.072
T34C	0.042 ± 0.074
T34M	-0.265 ± 0.068
T34Y	-0.324 ± 0.089
T34V	-0.232 ± 0.045
T34W	-0.193 ± 0.048
T34S	-0.11 ± 0.048
T34H	-0.407 ± 0.09
T34R	-0.035 ± 0.05
T34E	-0.316 ± 0.083
T34G	-0.453 ± 0.061
T34D	-0.414 ± 0.094
T34N	-0.237 ± 0.083
T34I	-0.502 ± 0.076
T34A	-0.413 ± 0.053
T34F	-0.387 ± 0.079
T34K	-0.219 ± 0.088

Variant	abundance fitness
T34L	-0.603 ± 0.079
H29L	-0.156 ± 0.042
H29C	-0.502 ± 0.095
H29P	-0.515 ± 0.057
H29S	-0.26 ± 0.064
H29A	-0.229 ± 0.056
H29F	-0.682 ± 0.14
H29E	-0.354 ± 0.081
H29Q	-0.465 ± 0.086
H29G	-0.317 ± 0.042
H29V	-0.207 ± 0.038
H29W	-0.439 ± 0.049
H29T	0.016 ± 0.064
H29K	-0.157 ± 0.071
H29D	-0.535 ± 0.091
H29N	-0.01 ± 0.082
H29R	-0.217 ± 0.043
H29M	-0.386 ± 0.057
K44Y	-0.041 ± 0.068
K44L	-0.061 ± 0.039
K44T	-0.2 ± 0.07
K44W	-0.237 ± 0.046
K44P	-0.27 ± 0.065
K44I	-0.438 ± 0.13

Variant	abundance fitness
K44D	-0.106 ± 0.082
K44G	-0.068 ± 0.051
K44R	-0.057 ± 0.045
K44S	-0.106 ± 0.05
K44V	-0.286 ± 0.062
K44E	0.019 ± 0.043
K44C	-0.03 ± 0.078
K44F	-0.186 ± 0.072
K44H	-0.196 ± 0.15
K44Q	-0.086 ± 0.077
K44M	-0.064 ± 0.07
K44A	-0.079 ± 0.051
E37Q	-0.176 ± 0.071
E37V	-0.286 ± 0.048
E37D	-0.151 ± 0.079
E37M	-0.296 ± 0.07
E37A	-0.192 ± 0.053
E37W	-0.47 ± 0.046
E37Y	-0.611 ± 0.089
E37C	-0.292 ± 0.051
E37H	-0.321 ± 0.11
E37F	-0.438 ± 0.054
E37T	-0.177 ± 0.057
E37P	-0.56 ± 0.087

Variant	abundance fitness
E37S	-0.162 ± 0.042
E37K	-0.282 ± 0.11
E37L	-0.213 ± 0.049
E37R	-0.401 ± 0.058
E37G	-0.213 ± 0.044
E37N	-0.005 ± 0.098
D28Y	-0.861 ± 0.24
D28Q	-0.934 ± 0.14
D28N	-0.303 ± 0.086
D28P	-0.855 ± 0.14
D28M	-1.14 ± 0.15
D28R	-1.09 ± 0.059
D28V	-1.24 ± 0.067
D28K	-0.764 ± 0.13
A43M	-0.044 ± 0.08
A43P	-0.184 ± 0.079
A43Q	-0.024 ± 0.047
A43I	-0.092 ± 0.088
A43G	-0.137 ± 0.05
A43L	-0.012 ± 0.059
A43T	0.045 ± 0.064
A43Y	-0.33 ± 0.1
A43V	-0.131 ± 0.042
A43R	-0.11 ± 0.042

Variant	abundance fitness
A43D	0.003 ± 0.049
A43K	-0.236 ± 0.1
A43F	-0.357 ± 0.1
A43C	-0.246 ± 0.078
A43E	-0.011 ± 0.053
A43W	-0.231 ± 0.069
A43H	-0.161 ± 0.087
A43N	-0.014 ± 0.047
K46C	-0.103 ± 0.046
K46S	-0.093 ± 0.041
K46Y	-0.169 ± 0.094
K46V	-0.065 ± 0.041
K46P	-0.044 ± 0.087
K46E	-0.256 ± 0.072
K46R	-0.094 ± 0.056
K46D	0.012 ± 0.052
K46Q	-0.026 ± 0.064
K46F	-0.27 ± 0.1
K46M	-0.328 ± 0.088
K46W	-0.331 ± 0.056
K46T	-0.333 ± 0.11
K46H	0.173 ± 0.1
K46G	-0.089 ± 0.038
K46L	-0.133 ± 0.064

Variant	abundance fitness
K46A	-0.063 ± 0.058
K46N	-0.41 ± 0.11
K47A	-0.075 ± 0.076
K47C	-0.232 ± 0.085
K47H	-0.172 ± 0.059
K47M	-0.102 ± 0.049
K47D	-0.154 ± 0.088
K47L	-0.008 ± 0.053
K47F	-0.239 ± 0.14
K47E	-0.25 ± 0.094
K47N	-0.318 ± 0.12
K47P	-0.121 ± 0.08
K47G	-0.169 ± 0.057
Q35R	-0.334 ± 0.051
Q35D	-0.597 ± 0.11
Q35C	-0.338 ± 0.095
Q35L	-0.423 ± 0.045
Q35Y	-0.15 ± 0.15
Q35I	-0.571 ± 0.2
Q35M	-0.18 ± 0.078
Q35V	-0.188 ± 0.056
Q35E	-0.373 ± 0.055
Q35W	-0.48 ± 0.055
Q35G	-0.487 ± 0.041

Variant	abundance fitness
Q35F	-0.68 ± 0.27
Q35H	-0.588 ± 0.18
Q35N	-0.516 ± 0.049
Q35A	-0.26 ± 0.046
Q35T	0.009 ± 0.078
L41T	-0.058 ± 0.076
L41P	-0.128 ± 0.07
L41H	0.032 ± 0.044
L41F	0.064 ± 0.087
L41M	0.03 ± 0.074
L41R	-0.039 ± 0.037
L41G	-0.094 ± 0.04
L41K	-0.035 ± 0.078
L41W	-0.114 ± 0.042
L41C	-0.116 ± 0.075
L41I	-0.324 ± 0.11
L41Y	-0.021 ± 0.075
L41N	-0.137 ± 0.12
L41S	-0.011 ± 0.055
L41E	-0.053 ± 0.071
L41V	0.001 ± 0.045
L41A	0.038 ± 0.05
L41Q	0.001 ± 0.044
